These results are taken from patent US20190241653A1 (NATIONAL RESEARCH COUNCIL OF CANADA, published 2019).

In assay [1] the target is receptor(s) of FC5 on SV-ARBEC cells (SV40-immortalized adult rat brain microvascular endothelial cells) (rat) (UniProt Q6AY41). Description: Mirrorball microplate cytometry on SV-ARBEC cells in suspension, anti-c-myc Alexa 488 detection.
In assay [2] the target is T1, receptor(s) of FC5 on HBEC-D3 cells (human microvascular brain endothelial cells) (human, UniProt Q9NV96 2-361).
T1 construct: whole, on cells; The assay used whole, untransfected endothelial cells; also called human brain endothelial cells; TMEM30A
T1 sequence (looked up): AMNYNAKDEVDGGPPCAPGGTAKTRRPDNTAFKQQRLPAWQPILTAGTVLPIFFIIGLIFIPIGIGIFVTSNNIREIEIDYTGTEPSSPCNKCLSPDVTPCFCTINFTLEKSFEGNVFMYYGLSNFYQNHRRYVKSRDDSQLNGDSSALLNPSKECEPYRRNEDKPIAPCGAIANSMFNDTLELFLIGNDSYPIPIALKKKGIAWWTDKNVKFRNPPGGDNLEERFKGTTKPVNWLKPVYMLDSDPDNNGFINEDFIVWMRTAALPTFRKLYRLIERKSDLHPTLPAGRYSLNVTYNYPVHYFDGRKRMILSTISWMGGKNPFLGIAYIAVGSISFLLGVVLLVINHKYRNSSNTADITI
Description: Mirrorball microplate cytometry on HBEC-D3 cells in suspension, anti-c-myc Alexa 488 detection. As for the experimental part:
Mirrorball 6 High Sensitivity Microplate Cytometry (TTP Labtech): All buffers and reagents were pre-chilled to 4° C. […] mM EDTA and Mirrorball assay buffer—Live Cell Imaging Solution, LCIB (Invitrogen, 140 mM NaCl, 2.5 mM KCl, 1.8 mM CaCl₂, 1.0 mM MgCl₂, 20 mM Hepes, pH 7.4, mOsm=300). A 20 μl volume of a 1:1 mix of LCIB and 0.5×PBS/2.5 mM EDTA was added to all wells of each 384 well Mirrorball assay plate (Corning 3712); with the exception of row A which received 40 μl of 1000 nM test VHH antibody. Serial dilutions were prepared for each test variant within the Mirrorball 384 well assay plate. A 16-channel Finn pipette (Thermo Scientific) was used to transfer 20 μl of VHH antibody from row A-columns 1-24 into row B-columns 1-24 mixing 8×, then transferring 20 μl of VHH antibody from row B-columns 1-24 into row C-columns 1-24 mixing 8×. Dilutions were repeated until row G-columns 1-24 to create 7 point curve for each VHH antibody variant. A second set of test VHH antibody variants (1000 nM) were added to row I-columns 1-24 and the dilution protocol was repeated until row 0-columns 1-24. Row H-columns 1-24 were reserved on each plate for the reference FC5-H7 VHH single domain antibody. Row P-columns 1-24 received no antibody; this was background control for non-specific binding of the secondary to the cells of interest; thus 48 variants could be tested on each 384 well Mirrorball assay plate. Immortalized adult rat brain microvascular endothelial cells (SV-ARBEC) and/or human microvascular brain endothelial cells (HBEC-D3) were dissociated in Accutase solution (Sigma Aldrich) to generate single cell populations. Cells were washed in LCIB then centrifuged at 200×g, 5 min to pellet. Wash buffer was removed and the cell pellet was re-suspended into 1 mL of LCIB. Cell number was calculated using a Bio-Rad TC20 automated cell counter with Trypan Blue dye to assess viability. The cells were diluted to 350,000 live cells/ml using LCIB. A fluorescent conjugate c-myc Alexa 488 detection antibody (1600 ng/ml, Santa Cruz Biotechnology) supplemented with Draq 5 nuclear stain (2 uM, Cell Signaling) was prepared in LCIB assay buffer.

B1: FC5 VHH (parental camelid single domain antibody) (VHH)
VHH: DVQLQASGGGLVQAGGSLRLSCAASGFKITHYTMGWFRQAPGKEREFVSRITWGGDNTFYSNSVKGRFTISRDNAKNTVYLQMNSLKPEDTADYYCAAGSTSTATPLRVDYWGKGTQVTVSS
notes: Llama-derived VHH expressed in E. coli in fusion with His5 and c-myc tags; also called FC5 camelid; sdAb FC5; not shown: His5 and c-myc tags
B1 yielded an SV-ARBEC binding (MMFI at 1.3 µM antibody) in assay [1] of 20.3 MMFI. In addition, the “HBEC-D3 binding (MMFI at 1.3 µM antibody)” value (“HBEC-D3 binding” below) in assay [2] worked out at 39.1 MMFI.

B2: FC5-H7 (VHH)
VHH: EVQLVESGGGLVQPGGSLRLSCAASGFKITHYTMGWFRQAPGKEREFVSRITWGGDNTFYSNSVKGRFTISRDNSKNTLYLQMNSLRAEDTAVYYCAAGSTSTATPLRVDYWGQGTLVTVSS
notes: Humanized variant of FC5, expressed with His5 and c-myc tags; not shown: His5 and c-myc tags
B2: the SV-ARBEC binding (MMFI at 1.3 µM antibody) in assay [1] is 64.2 MMFI. In assay [2], the “HBEC-D3 binding” value stood at 72.8 MMFI.

B3: FC5-H3 (VHH)
VHH: EVQLVESGGGLVQPGGSLRLSCAASGFKITHYTMGWFRQAPGKGLEFVSRITWGGDNTFYSNSVKGRFTISRDNSKNTVYLQMNSLRAEDTAVYYCAAGSTSTATPLRVDYWGQGTLVTVSS
notes: as for B2
As to B3, in assay [1], the SV-ARBEC binding (MMFI at 1.3 µM antibody) is 40.2 MMFI. For the same molecule, the “HBEC-D3 binding” value in assay [2] was 43.9 MMFI.

B4: FC5-H1 (VHH)
VHH: EVQLVESGGGLVQPGGSLRLSCAASGFKITHYTMGWVRQAPGKGLEWVSRITWGGDNTFYSNSVKGRFTISRDNSKNTLYLQMNSLRAEDTAVYYCAAGSTSTATPLRVDYWGQGTLVTVSS
notes: as for B2
In assay [1], B4 had an SV-ARBEC binding (MMFI at 1.3 µM antibody) of 27 MMFI. Also, the “HBEC-D3 binding” value in assay [2] turned out to be 66.4 MMFI.

B5: FC5-H2 (VHH)
VHH: EVQLVESGGGLVQPGGSLRLSCAASGFKITHYTMGWVRQAPGKGLEWVSRITWGGDNTFYSNSVKGRFTISRDNSKNTVYLQMNSLRAEDTAVYYCAAGSTSTATPLRVDYWGQGTLVTVSS
notes: as for B2
As for B5, in assay [1], the SV-ARBEC binding (MMFI at 1.3 µM antibody) was found to be 23.1 MMFI. Further, in assay [2], the “HBEC-D3 binding” value came to 31 MMFI.
